Reference: patent publication US10759863B2, “Modulation of γδ T cells” (Sanford Burnham Prebys Medical Discovery Institute, priority 2013, dated 2020)

Tests used:
RORγt = experiment: Digoxin treatment of RORγt-expressing Jurkat cells, BTLA expression; type: cell-based; details: digoxin vs DMSO, 24-48 hrs, FIG. 11B
Method: (§1) Surface staining was performed on ice for 20-30 min. Intracellular staining was performed using the BD Cytofix/Cytoperm™ Kit according the manufacturer's instructions (BD Biosciences). Stained cells were acquired using a BD LSRFortessa™ equipped with 4 lasers (blue at 488 nm, yellow-green at 561 nm, red at 640 nm, violet at 405 nm). Antibodies in SI.
For qRT-PCR analysis, total RNA was prepared from FACS sorted populations using the Qiagen RNeasy Mini kit according to the manufacturer's instructions (Qiagen, Valencia, Calif.). RNA was reverse transcribed into cDNA using the iScript™ cDNA synthesis kit (Bio-Rad Laboratories, Hercules, Calif.) according to the manufacturer's instructions. Target genes were detected using intron-spanning primers (Invitrogen) and relative expression was measured using Power® SYBR Master mix (Life Technologies, Grand Island, N.Y.). Reactions were carried out in clear 384 plates using an ABI® 7900 Real-Time PCR System (Life Technologies). We calculated relative expression as follows: 2^−Dct, where Ct=cycle number, DCt=Ct (target gene)−Ct (house-keeping gene). A value of 1 means equal expression of target and house-keeping gene (L32). Oligo sequences (5′-3′):
Jurkat cells were cultured at 10^5/100 μl in U-bottom wells for 24-48 hrs with either DMSO or the indicated concentrations of digoxin (Sigma-Aldrich). […]

[1] = system: BTLA expression in γδT cells and ILCs; experiment: Cytokine-induced BTLA expression in cultured iLN γδT cells and PP ILCs; type: cell-based, mice; details: for BTLA induction in RORγt+ γδT cells after culture with activating cytokines: iLN lymphocytes of Rorc(t)gfp/+ mice enriched for CD27− γδT cells, FIG. 17A
Method: as §1
(§2) For IL-7 induced expansion iLN lymphocytes were cultured in RF10 media (RPMI+10% FBS, p/s, L-Glutamine) at 10^7/ml in 12-well plates for four days. For IL-7 induced BTLA expression iLN or PP lymphocytes were enriched for ILCs and CD27^− γδT cells and cultured in RF10 media in 24-well plates containing feeder adherent cells for two days. Following enrichment, cells from 3 animals were cultured in 1 ml in a single well. IL-7 (R&D Systems, Minneapolis, Minn.) was added at 10 ng/ml. For IL-17 and TNF production whole lymph node cells were cultured with or without 10 ng/ml IL-7 for 18 hours and then re-stimulated with PMA (50 ng/ml), ionomycin (750 ng/ml) and Golgi Stop™ (BD Biosciences) for 3.5 hours. TH17 differentiation was performed by isolating CD4^+ T cells from spleens and culturing in anti-CD3 (5 μg/ml) coated 24-well plates at 1.35×10^6/ml with anti-CD28 (2 μg/ml), IL-6 (20 ng/ml) and TGFβ1 (2 ng/ml). At day 5, cells were washed and re-stimulated with PMA+ionomycin and Golgi Stop™ (BD Biosciences) for 3.5 hours. For induction of human IL-22, tonsil lymphocytes were cultured in RF10 media at 1.5×10^6/ml in 24-well plates for 6 hours in the presence of 40 ng/ml IL-23 (eBiosciences) and 10 ng/ml IL-1β (R&D Systems). Golgi Stop™ (BD Biosciences) was added during the final 3 hours.
Jurkat cells were cultured at 10^5/100 μl in U-bottom wells for 24-48 hrs with either DMSO or the indicated concentrations of digoxin (Sigma-Aldrich). To test the effect of STAT5 in IL-7-induced BTLA expression, CD27^− gd T cells were enriched from lymph nodes of Rorc(t)^gfp/+ mice and cultured for two days in 24-well plates containing feeder adherent cells with no stimulus, or with IL-7 in the presence or absence of STAT inhibitor (EMD Millipore, Billerica, Mass.) at the indicated concentrations.

γδT cells [2] = experiment: IL-7 induced expansion of iLN lymphocytes cultured ex vivo; type: cell-based, mice; details: IL-7 10 ng/ml, four days, vs untreated cultures; FIG. 4A
Method: as §2

γδT cells [3] = experiment: IL-17 and TNF production by lymph node γδT cells with or without IL-7; type: cell-based, mice; details: all γδT subsets, IL-7 10 ng/ml 18 hours then PMA/ionomycin; FIG. 5
Method: as §1
as §2, with “For induction of human IL-22, tonsil lymphocytes were cultured in RF10 media at 1.5×10^6/ml in 24-well plates for 6 hours in the presence of 40 ng/ml IL-23 (eBiosciences) and 10 ng/ml IL-1β (R&D Systems). Golgi Stop™ (BD Biosciences) was added during the final 3 hours.” left out

[4] = iLN γδT cells and PP ILCs from Rorc(t)gfp/+ mice, IL-7 10 ng/ml, two days, vs untreated, FIG. 4G-K

Which results are given for `C[C@H]1O[C@@H](O[C@H]2[C@@H](O)C[C@H](O[C@H]3[C@@H](O)C[C@H](O[C@H]4CC[C@@]5(C)[C@H](CC[C@@H]6[C@@H]5C[C@@H](O)[C@]5(C)[C@@H](C7=CC(=O)OC7)CC[C@]65O)C4)O[C@@H]3C)O[C@@H]2C)C[C@H](O)[C@@H]1O` [digoxin]?
BTLA expression at the mRNA level (RORγt): induced expression of BTLA; BTLA expression at the protein level (surface expression) (RORγt): induced expression of BTLA

With “IL-1β: cytokine, potent γδT cell activator” as the molecule, how does the “BTLA induction in RORγt+ γδT cells after culture with activating cytokines” value [1] read?
Its value is “either no or only a minimal effect”.

B1: IL-23: cytokine, potent γδT cell activator (protein, UniProt Q9NPF7 20-189; P29460 23-328, looked up)
Interleukin-23 subunit alpha: RAVPGGSSPAWTQCQQLSQKLCTLAWSAHPLVGHMDLREEGDEETTNDVPHIQCGDGCDPQGLRDNSQFCLQRIHQGLIFYEKLLGSDIFTGEPSLLPDSPVGQLHASLLGLSQLLQPEGHHWETQQIPSLSPSQPWQRLLLRFKILRSLQAFVAVAARVFAHGAATLSP
Interleukin-12 subunit beta: IWELKKDVYVVELDWYPDAPGEMVVLTCDTPEEDGITWTLDQSSEVLGSGKTLTIQVKEFGDAGQYTCHKGGEVLSHSLLLLHKKEDGIWSTDILKDQKEPKNKTFLRCEAKNYSGRFTCWWLTTISTDLTFSVKSSRGSSDPQGVTCGAATLSAERVRGDNKEYEYSVECQEDSACPAAEESLPIEVMVDAVHKLKYENYTSSFFIRDIIKPDPPKNLQLKPLKNSRQVEVSWEYPDTWSTPHSYFSLTFCVQVQGKSKREKKDRVFTDKTSATVICRKNASISVRAQDRYYSSSWSEWASVPCS
B1 was tested. Which “BTLA induction in RORγt+ γδT cells after culture with activating cytokines” value [1] did it give?
Its value is “either no or only a minimal effect”.

B2: IL-7: cytokine IL-7 (R&D Systems), added at 10 ng/ml (protein, UniProt P13232 26-177, looked up)
Interleukin-7: DCDIEGKDGKQYESVLMVSIDQLLDSMKEIGSNCLNNEFNFFKRHICDANKEGMFLFRAARKLRQFLKMNSTGDFDLHLLKVSEGTTILLNCTGQVKGRKPAALGEAQPTKSLEENKSLKEQKKLNDLCFLKRLLQEIKTCWNKILMGTKEH
With B2 as the molecule, how does the “viability of γδT cells within lymph node lymphocytes cultured ex vivo” value (γδT cells [2]) read?
Its value is “sustained viability”.

What about the “frequency of IL-17 expressing γδT cells” value (γδT cells [3]) of the same molecule?
Its value is “enhanced”.

What about the “frequency of TNF expressing γδT cells” value (γδT cells [3]) of the same molecule?
Its value is “enhanced”.

What about the “number of BTLA+ cells” value [1, 4] of the same molecule?
Its value is “induced a higher number”.

What about the “surface BTLA expression” value [1, 4] of the same molecule?
The value was “increased”.
